Results taken from paper PMC9726891, “SESAME-catalyzed H3T11 phosphorylation inhibits Dot1-catalyzed H3K79me3 to regulate autophagy and telomere silencing” (Nature Communications, 2022).
One block for each molecule: values may come before it. Where no end group is shown, it is not given here.

Key:
[1] = target: Dot1 (UniProt Q04089); experiment: Dot1-FLAG IP, anti-H3/H4 blot of nucleosomes; conditions: reference: wild type H3; sites T11
[2] = target: Set2 (UniProt P46995); experiment: biotinylated peptide pull-down, immunoblot; conditions: reference: unmodified H3 (1-23) peptide; sites T11
[3] = target: Set1 (UniProt P38827); experiment: biotinylated peptide pull-down, immunoblot; conditions: reference: unmodified H3 (1-23) peptide; sites T11
[4] = target: Dot1 (UniProt Q04089); experiment: biotinylated peptide pull-down, immunoblot; conditions: reference: unmodified H3 (1-23) peptide; sites T11
[5] = target: Dot1 (UniProt Q04089); experiment: H3-FLAG nucleosome IP, Dot1 blot; conditions: reference: WT H3-FLAG; sites T11
[6] = target: T1, purified endogenous SIR complex (Sir2-FLAG) (S. cerevisiae (endogenous in yeast), UniProt P06700 1-562; P06701 1-978; P11978 1-1358); experiment: pull-down; 1.0 µg biotinylated histone peptide incubated with 1 µg purified SIR complex (Sir2-FLAG) in 50 mM Tris-HCl pH 7.5, 250 mM NaCl, 0.1% NP-40, overnight at 4 °C; Streptavidin beads; immunoblot; conditions: both partners purified
T1 construct: NAD-dependent histone deacetylase Sir2, S. cerevisiae; Sir3, S. cerevisiae; named as a subunit of the SIR complex in the introduction; Sir4, S. cerevisiae; also called silent information regulator complex; not shown: FLAG, C-terminal, kept; copies: + +
T1 sequence (P06700 whole entry, chain 1 of 3): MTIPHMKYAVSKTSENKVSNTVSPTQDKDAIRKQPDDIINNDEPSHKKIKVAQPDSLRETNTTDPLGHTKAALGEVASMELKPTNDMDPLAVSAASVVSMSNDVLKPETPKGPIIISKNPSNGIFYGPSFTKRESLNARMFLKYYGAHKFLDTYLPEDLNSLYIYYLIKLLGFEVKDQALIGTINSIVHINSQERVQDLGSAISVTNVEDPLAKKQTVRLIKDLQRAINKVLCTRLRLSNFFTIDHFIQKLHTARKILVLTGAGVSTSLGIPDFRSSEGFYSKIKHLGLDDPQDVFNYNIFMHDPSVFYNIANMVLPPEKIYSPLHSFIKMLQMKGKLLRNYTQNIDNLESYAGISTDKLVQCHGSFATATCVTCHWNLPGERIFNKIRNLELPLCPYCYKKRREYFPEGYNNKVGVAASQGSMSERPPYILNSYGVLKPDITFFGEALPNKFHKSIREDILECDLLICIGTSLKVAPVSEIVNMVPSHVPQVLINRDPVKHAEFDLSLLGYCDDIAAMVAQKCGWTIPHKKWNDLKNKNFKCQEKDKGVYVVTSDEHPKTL
T1 sequence (P06701 whole entry, chain 2 of 3): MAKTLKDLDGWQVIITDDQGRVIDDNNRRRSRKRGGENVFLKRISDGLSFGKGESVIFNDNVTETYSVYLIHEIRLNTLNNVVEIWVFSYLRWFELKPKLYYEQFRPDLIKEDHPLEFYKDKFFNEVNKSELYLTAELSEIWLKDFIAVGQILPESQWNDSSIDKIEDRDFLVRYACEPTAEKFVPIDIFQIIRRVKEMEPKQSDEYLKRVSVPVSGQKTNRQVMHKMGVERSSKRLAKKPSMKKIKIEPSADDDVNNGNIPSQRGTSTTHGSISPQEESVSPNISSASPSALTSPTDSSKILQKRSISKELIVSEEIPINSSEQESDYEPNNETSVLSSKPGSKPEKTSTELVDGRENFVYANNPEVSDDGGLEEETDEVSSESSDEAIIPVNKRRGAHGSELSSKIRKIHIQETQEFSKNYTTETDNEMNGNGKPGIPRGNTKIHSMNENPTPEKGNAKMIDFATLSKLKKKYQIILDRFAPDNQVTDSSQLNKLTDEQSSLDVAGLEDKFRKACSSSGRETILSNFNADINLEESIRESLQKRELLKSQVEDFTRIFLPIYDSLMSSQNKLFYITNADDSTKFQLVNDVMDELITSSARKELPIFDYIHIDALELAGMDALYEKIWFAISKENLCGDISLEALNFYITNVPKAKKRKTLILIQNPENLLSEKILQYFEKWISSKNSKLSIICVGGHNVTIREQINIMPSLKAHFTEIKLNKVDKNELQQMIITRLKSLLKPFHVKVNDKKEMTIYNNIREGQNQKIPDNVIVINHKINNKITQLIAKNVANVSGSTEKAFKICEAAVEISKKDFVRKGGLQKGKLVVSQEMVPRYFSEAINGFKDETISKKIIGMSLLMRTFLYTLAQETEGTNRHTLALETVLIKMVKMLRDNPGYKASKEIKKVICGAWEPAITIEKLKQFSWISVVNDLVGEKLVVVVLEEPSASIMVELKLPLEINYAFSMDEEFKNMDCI
T1 sequence (P11978 whole entry, chain 3 of 3): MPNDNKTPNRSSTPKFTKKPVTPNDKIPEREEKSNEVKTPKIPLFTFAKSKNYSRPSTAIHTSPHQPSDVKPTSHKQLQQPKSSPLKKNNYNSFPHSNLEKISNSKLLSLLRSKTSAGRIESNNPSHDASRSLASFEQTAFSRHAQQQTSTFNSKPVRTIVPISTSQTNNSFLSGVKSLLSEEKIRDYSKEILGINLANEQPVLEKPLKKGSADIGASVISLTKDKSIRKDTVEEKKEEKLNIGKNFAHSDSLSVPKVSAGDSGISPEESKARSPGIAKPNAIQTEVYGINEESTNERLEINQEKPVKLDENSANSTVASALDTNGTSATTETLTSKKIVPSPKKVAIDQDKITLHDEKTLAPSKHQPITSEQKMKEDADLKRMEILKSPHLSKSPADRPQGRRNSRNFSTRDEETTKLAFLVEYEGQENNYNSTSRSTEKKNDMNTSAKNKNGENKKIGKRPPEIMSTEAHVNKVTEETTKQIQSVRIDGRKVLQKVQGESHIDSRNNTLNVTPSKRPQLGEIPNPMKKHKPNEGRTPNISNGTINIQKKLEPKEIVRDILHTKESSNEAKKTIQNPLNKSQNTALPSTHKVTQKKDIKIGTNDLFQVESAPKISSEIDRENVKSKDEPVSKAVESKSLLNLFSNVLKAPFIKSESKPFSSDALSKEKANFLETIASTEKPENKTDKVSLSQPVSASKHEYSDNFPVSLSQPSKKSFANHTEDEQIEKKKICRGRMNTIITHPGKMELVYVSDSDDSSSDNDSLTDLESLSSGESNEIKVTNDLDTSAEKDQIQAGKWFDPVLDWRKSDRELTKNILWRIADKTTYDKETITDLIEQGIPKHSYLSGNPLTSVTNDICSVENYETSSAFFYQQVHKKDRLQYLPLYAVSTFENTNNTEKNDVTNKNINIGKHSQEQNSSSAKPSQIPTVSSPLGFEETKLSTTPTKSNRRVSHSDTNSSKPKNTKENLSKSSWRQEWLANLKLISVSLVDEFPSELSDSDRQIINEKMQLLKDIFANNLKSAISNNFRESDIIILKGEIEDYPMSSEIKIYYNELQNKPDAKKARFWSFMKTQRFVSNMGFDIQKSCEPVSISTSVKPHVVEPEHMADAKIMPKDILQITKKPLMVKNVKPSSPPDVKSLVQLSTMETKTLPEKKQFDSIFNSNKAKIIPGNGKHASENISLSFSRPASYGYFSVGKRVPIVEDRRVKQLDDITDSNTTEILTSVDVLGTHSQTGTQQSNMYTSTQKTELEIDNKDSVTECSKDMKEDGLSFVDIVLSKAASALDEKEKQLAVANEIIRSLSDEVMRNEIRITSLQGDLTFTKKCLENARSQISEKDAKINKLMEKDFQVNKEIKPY

- binding against the reference [1]: stronger
Molecule: histone H3 (from UniProt P61830) H3T11A

- binding against the reference [2]: same
- binding against the reference [3]: same
- binding against the reference [4]: weaker
Molecule: histone H3 1-23 (from UniProt P61830) H3pT11 (1-23) peptide

- binding against the reference [5]: stronger
Molecule: histone H3 (from UniProt P61830) H3T11A-FLAG

- binding result [6]: binds
B1: Unmodified H3 (72–85) peptide (peptide)
peptide: REIAQDFKTDLRFQ
modifications: also: biotin (position not given here)
notes: histone H3 residues 72-85; also called unmodified H3 peptide; source: synthetic peptide (biotinylated histone peptide)
